Assay results from publication PMC7897479.

How the values were obtained:
SpCas9-His [1] = target: T1, SpCas9-His (Streptococcus pyogenes, UniProt Q99ZW2 1-1368); assay: SPR
SpCas9-His [2] = target: T1, SpCas9-His; assay: EMSA

T1 sequence (Q99ZW2 whole entry): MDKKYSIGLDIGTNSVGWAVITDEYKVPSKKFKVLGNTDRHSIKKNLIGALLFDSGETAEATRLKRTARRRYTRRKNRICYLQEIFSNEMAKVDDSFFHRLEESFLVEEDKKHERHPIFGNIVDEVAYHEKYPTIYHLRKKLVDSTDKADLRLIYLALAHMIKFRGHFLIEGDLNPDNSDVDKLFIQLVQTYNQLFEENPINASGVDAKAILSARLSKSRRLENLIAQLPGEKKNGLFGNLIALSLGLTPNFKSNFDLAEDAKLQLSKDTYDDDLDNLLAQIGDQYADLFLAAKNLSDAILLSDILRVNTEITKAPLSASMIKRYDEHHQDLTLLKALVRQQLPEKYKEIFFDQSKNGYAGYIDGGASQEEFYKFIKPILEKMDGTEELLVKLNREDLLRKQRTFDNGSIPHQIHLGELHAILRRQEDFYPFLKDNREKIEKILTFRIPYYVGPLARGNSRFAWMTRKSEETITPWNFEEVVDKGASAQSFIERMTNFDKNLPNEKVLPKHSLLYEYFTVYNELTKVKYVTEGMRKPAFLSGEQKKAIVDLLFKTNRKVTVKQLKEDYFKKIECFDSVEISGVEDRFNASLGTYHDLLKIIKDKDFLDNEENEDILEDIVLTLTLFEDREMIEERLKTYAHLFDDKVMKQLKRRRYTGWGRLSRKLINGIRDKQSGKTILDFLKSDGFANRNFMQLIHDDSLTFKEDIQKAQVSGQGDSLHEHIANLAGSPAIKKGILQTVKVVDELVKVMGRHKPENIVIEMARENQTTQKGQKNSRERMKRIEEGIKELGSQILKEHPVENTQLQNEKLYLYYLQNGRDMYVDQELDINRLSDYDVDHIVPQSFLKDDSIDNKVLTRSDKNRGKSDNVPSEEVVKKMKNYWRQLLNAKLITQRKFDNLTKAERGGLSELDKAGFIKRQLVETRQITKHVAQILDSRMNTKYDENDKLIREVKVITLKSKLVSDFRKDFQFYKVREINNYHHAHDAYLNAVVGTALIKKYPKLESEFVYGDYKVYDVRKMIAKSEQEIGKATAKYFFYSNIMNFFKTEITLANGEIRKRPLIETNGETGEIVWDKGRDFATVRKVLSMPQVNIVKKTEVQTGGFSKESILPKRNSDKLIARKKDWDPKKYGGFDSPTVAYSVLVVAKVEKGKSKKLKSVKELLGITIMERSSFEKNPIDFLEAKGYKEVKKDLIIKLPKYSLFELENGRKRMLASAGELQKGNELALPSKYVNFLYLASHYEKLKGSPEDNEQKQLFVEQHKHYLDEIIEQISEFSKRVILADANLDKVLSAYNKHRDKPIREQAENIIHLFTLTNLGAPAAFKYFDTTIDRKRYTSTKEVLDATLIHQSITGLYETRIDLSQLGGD

Row | Binder | binding result (SpCas9-His [2]) | other results
1 | GAGGCTCTCACAGTAATGTGAGAGCCT (structured_DNA) [Loop-NC for Biacore] | – | binding result (SpCas9-His [1]): no binding
2 | GAGGCTCTCACATCGCGCCTTTCCCCAGCTTTCGGTGTGAGAGCCTC (structured_DNA) [S21 for Biacore] | – | Kd (SpCas9-His [1]): 0.63 nM
3 | GAGGCTCTCACAGCGCGCCTTTCGTTGTGAGAGCCTC (structured_DNA) [SS21 NM2] | no binding | –
4 | GAGGCTCTCACAGTAATGTGAGAGCCT (structured_DNA) [Loop-NC for EMSA] | no binding | –
5 | GGTCCTCACACCGCTGTGTGCCGCAACACTGTGAGGACC (structured_DNA) [SA-Ap (streptavidin aptamer)] | no binding | –
